From US20110263679

Tested on: T1, purified recombinant His-tagged C12ORF48 protein
T1 sequence: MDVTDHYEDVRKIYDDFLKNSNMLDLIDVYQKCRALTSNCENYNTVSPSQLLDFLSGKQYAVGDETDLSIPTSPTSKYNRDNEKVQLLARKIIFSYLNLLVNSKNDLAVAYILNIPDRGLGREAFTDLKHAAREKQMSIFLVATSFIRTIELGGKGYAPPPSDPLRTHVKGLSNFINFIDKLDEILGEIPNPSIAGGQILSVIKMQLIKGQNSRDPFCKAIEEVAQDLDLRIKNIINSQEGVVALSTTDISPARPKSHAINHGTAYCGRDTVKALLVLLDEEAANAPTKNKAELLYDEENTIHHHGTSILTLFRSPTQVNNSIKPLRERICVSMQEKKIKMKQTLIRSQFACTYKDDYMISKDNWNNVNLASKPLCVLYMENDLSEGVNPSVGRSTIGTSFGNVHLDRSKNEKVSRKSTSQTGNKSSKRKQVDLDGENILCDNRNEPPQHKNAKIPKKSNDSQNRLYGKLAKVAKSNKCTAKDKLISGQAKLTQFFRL

In the case of recombinant human PARP1 (Alexis), the “PARP1 automodification, incorporation of [32P] NAD+, SDS-PAGE autoradiography” value is reported as “PARP1 automodification was strongly enhanced in the presence of C12ORF48 protein compared with in the absence of C12ORF48 protein”.
